Columns and labels:
[1] = target: SARS-CoV-2 S receptor-binding domain (RBD), biotinylated (SARS-CoV-2, UniProt P0DTC2 330-531); test: BLI
[2] = target: biotinylated SARS-CoV RBD (SARS-CoV, UniProt P59594, biotin); test: BLI

B1: scFD20 (single-chain variable fragment of FD20) (scFv, V domains shown)
VH: QVQLQQSGAEVKKPGSSVKVSCKASGGTFSSYAFSWVRQAPGQGLEWMGRIIPILGIANYAQKFQGRVTITADISTSTAYMALSSLRSEDTAVYYCAKVEVNIGMDDYYYYYGMDVWGQGTTVTVSS
VL: not shown
koff [1]: 0.000664 s⁻¹ | koff [2]: 0.00054 s⁻¹

From paper PMC8646660 (2021)
